Entries after “also recorded” stand apart in the source; their conditions may differ. Square brackets hold non-standard residues; d marks the D form. Ends that are not written are not given here. Peptide text beside a SMILES is read from it. Hyp = O=C(O)[C@@H]1C[C@@H](O)CN1
Legend:
[1] = biological target: T1, ecdTDR (extracellular domain of TDR, residues 30–642), wild type (Arabidopsis thaliana, UniProt Q9FII5); assay: ITC of synthetic TDIF/CLE peptides with wild-type ecdTDR; conditions: for Binding to TDR in words (relative to wild type peptide) / Kd (dissociation constant): ITC, 25°C, pH 5.5; for Binding to TDR in words (relative to wild type peptide): wild-type ecdTDR; for Kd (dissociation constant): 10 mM sodium citrate, 100 mM NaCl, 0.5–1 mM peptide titrated into 10–40 μM ecdTDR, one set of binding sites, Kd = 1/Ka
T1 sequence (Q9FII5 30-642): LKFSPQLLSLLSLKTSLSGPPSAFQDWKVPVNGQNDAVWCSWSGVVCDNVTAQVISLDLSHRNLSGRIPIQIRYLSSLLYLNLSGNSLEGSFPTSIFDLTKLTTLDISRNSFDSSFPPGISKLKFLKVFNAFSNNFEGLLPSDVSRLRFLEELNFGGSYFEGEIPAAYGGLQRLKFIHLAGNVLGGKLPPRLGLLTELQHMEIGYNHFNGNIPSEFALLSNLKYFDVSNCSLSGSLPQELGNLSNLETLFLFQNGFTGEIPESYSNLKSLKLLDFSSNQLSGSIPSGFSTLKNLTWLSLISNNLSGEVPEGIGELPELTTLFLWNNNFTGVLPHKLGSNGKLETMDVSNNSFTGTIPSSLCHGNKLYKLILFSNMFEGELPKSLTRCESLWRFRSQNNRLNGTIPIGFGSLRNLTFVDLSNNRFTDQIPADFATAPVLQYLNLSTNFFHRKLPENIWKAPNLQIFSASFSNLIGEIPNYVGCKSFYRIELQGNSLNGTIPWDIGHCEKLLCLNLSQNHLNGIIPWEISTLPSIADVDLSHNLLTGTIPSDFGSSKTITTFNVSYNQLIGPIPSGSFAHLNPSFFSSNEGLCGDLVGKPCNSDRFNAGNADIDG
Description: To elucidate the molecular basis of TDR-TDIF interaction, we expressed the extracellular domain of TDR (residues 30–642) from Arabidopsis thaliana using Bac-to-Bac baculovirus-mediated insect cell expression system (Invitrogen). DNA fragment encoding the A. thaliana TDR gene (residues 30–642) were amplified by polymerase chain reaction (PCR) from an A. thaliana Expressed Sequence Tag (EST) clone as template. The amplified DNA fragment was then cloned into a modified pFastBac1 vector with the secretion signal sequence of baculovirus gp67 glycoprotein fused to its 5’ end and an engineered 6-histidine tag at the carboxyl terminus of the TDR protein. The construct plasmid was used to transform DH10Bac (Invitrogen) competent cells to generated recombinant bacmid DNA. Then the bacmid DNA was used to transfect sf9 insect cells to generate recombinant virus which was then amplified three times to passage 3. We used 20 ml passage 3 virus to infect each liter of High Five cells with a cell density of 1.5 x 10^6 in SF900 II SFM medium (Invitrogen). The recombinant protein was expressed in High Five cells at 27°C. […] The TDR mutants were generated using a PCR-based site-directed mutagenesis kit (Invitrogen), and the mutant TDR proteins were expressed and purified as the same procedure of the wild-type TDR (30–642) protein.
ITC experiments were performed on a MicroCal Auto-iTC200 instrument. […] Experiments were carried out at 25°C in a buffer containing 10 mM sodium citrate and 100 mM NaCl at pH 5.5. The data was analyzed using ORIGIN software. The association constant (Ka), enthalpy change (ΔH), and the stoichiometry (N) were calculated by fitting the thermograms to one set of binding sites. The association constant (Ka) was calculated by fitting the thermograms to one binding site.

[2] = test system: tracheary element differentiation; conditions: reported in vivo study; cited from earlier work
Description: There are two major anchoring sites on the TDIF peptide that are separated by Hyp4-S5-G6-Hyp7 (Fig 2). […] The side chain of H1 dips into a binding pocket of TDR formed by residues S162, G186, S187, Y188 and G210. In addition, hydrogen bonding interactions create major interactiv ... || Three TDIF residues N8, I10 and N12 form a C-terminal anchoring site (Fig 2C). Alanine substitutions of these residues N8A, I10A and N12A radically weaken their binding with TDR receptor. δ-NH2 group of N8 forms hydrogen bonds with the hydroxyl group of S305; side chain of I10 forms hydrophobic interaction with W353; δ-NH2 group of N12 forms hydrogen bonds with the hydroxyl group of S377 and carbonyl group of N12 forms a hydrogen bond with the side chain of R421.

[3] = biological target: ecdTDR S305A/W353A/R421A/R423A (Arabidopsis thaliana, UniProt Q9FII5, R421A/R423A/S305A/W353A); conditions: ITC, wild type TDIF, 25°C, pH 5.5
Description: (§1) To elucidate the molecular basis of TDR-TDIF interaction, we expressed the extracellular domain of TDR (residues 30–642) from Arabidopsis thaliana using Bac-to-Bac baculovirus-mediated insect cell expression system (Invitrogen). DNA fragment encoding the A. thaliana TDR gene (residues 30–642) were amplified by polymerase chain reaction (PCR) from an A. thaliana Expressed Sequence Tag (EST) clone as template. The amplified DNA fragment was then cloned into a modified pFastBac1 vector with the secretion signal sequence of baculovirus gp67 glycoprotein fused to its 5’ end and an engineered 6-histidine tag at the carboxyl terminus of the TDR protein. The construct plasmid was used to transform DH10Bac (Invitrogen) competent cells to generated recombinant bacmid DNA. Then the bacmid DNA was used to transfect sf9 insect cells to generate recombinant virus which was then amplified three times to passage 3. […]
(§2) ITC experiments were performed on a MicroCal Auto-iTC200 instrument. […] The data was analyzed using ORIGIN software. The association constant (Ka), enthalpy change (ΔH), and the stoichiometry (N) were calculated by fitting the thermograms to one set of binding sites. The association constant (Ka) was calculated by fitting the thermograms to one binding site.

[4] = biological target: ecdTDR Y234A/F279A/F281A/S305A/W353A/ R421A/R423A (Arabidopsis thaliana, UniProt Q9FII5, F279A/F281A/R421A/R423A/S305A/W353A/Y234A); conditions: ITC, wild type TDIF, 25°C, pH 5.5
Description: as §1, §2

[5] = biological target: T2, extracellular domain of A. thaliana TDR (residues 30-642), Q9FII5; assay: ITC
T2 chain: T1 sequence (Q9FII5 30-642)

[6] = biological target: T3, extracellular domain of A. thaliana TDR (residues 30-642) (Arabidopsis thaliana, UniProt Q9FII5 30-642, N-glycosylated at N111, N356, N378, N471 and N525 (one GlcNAc visible on each in the structures)); assay: ITC; 0.5–1 mM peptide titrated into 10–40 μM ecdTDR; 25°C; 10 mM sodium citrate, 100 mM NaCl, pH 5.5; fitted to one set of binding sites; MicroCal Auto-iTC200; conditions: both partners purified
T3 construct: TDR/PXY (TDIF RECEPTOR / PHLOEM INTERCALATED WITH XYLEM) of A. thaliana, extracellular domain, residues 30-642; the structure models hold residues 40-625; also called ecdTDR; TDR-ECD; source: High Five insect cells (baculovirus), secreted, purified (Ni-NTA, size-exclusion chromatography)
T3 sequence (looked up): T1 sequence (Q9FII5 30-642)

[7] = biological target: T4, extracellular domain of A. thaliana TDR (residues 30-642) (Arabidopsis thaliana, UniProt Q9FII5 30-642, N-glycosylated at N111, N356, N378, N471 and N525 (one GlcNAc visible on each in the structures)); assay: ITC
T4 chain: T1 sequence (Q9FII5 30-642)

Sequence of ecdTDR S305A/W353A/R421A/R423A (Q9FII5 30-642 S305A/W353A/R421A/R423A): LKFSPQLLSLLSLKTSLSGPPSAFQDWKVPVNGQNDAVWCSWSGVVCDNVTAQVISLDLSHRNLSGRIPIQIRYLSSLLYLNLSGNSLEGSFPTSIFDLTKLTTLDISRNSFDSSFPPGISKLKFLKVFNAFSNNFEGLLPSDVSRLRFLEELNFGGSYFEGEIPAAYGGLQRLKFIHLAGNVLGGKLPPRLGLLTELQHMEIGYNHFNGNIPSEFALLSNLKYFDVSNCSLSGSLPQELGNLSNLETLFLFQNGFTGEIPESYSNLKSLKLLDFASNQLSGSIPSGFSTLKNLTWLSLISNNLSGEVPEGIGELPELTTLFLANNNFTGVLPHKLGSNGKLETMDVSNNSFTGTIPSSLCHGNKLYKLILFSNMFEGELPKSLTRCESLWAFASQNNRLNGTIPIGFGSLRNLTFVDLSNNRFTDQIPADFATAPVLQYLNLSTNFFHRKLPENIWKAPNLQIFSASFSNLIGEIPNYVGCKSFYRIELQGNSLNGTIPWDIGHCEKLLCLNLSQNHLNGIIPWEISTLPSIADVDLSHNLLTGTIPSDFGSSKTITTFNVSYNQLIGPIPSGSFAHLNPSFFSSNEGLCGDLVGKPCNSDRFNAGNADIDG
Sequence of ecdTDR Y234A/F279A/F281A/S305A/W353A/ R421A/R423A (Q9FII5 30-642 Y234A/F279A/F281A/S305A/W353A/R421A/R423A): as the sequence (Q9FII5 30-642 S305A/W353A/R421A/R423A) above, with Y205A, F250A, F252A counted along it

Molecule: CC[C@H](C)[C@H](NC(=O)[C@@H]1CCCN1C(=O)[C@H](CC(N)=O)NC(=O)[C@@H]1C[C@@H](O)CN1C(=O)CNC(=O)[C@H](CO)NC(=O)[C@@H]1C[C@@H](O)CN1C(=O)[C@@H](NC(=O)[C@H](CCC(=O)O)NC(=O)[C@@H](N)Cc1c[nH]cn1)C(C)C)C(=O)N[C@@H](CO)C(=O)N[C@@H](C)C(=O)O [TDIF-N12A] (H-HEV[Hyp]SG[Hyp]NPISA-OH)
- Kd [1]: 4.69 ± 0.47 µM

Molecule: TDIF-S11A: TDIF mutant peptide, S11A substitution (HEVPSGPNPIAN; not fully specified (residues 4, 7))
- Binding to TDR in words (relative to wild type peptide) [1]: barely affects the binding affinity

Molecule: CLE46: CLE peptide with E2K, V3H, I10T and S11G substitutions relative to TDIF (HKHPSGPNPTGN) [reference compound]
- Kd (dissociation constant) [1]: No binding
- Binding to TDR in words (relative to wild type peptide) [1]: no measurable binding; also recorded: unable to bind TDR

Molecule: TDIF-P9A: TDIF mutant peptide, P9A (HEV[Hyp]SG[Hyp]NAISN)
- Effect on inhibition of tracheary element differentiation, in words [2]: significant in effect

Molecule: CLE42: CLE peptide in which the E2 of TDIF has been replaced with glycine (HGVPSGPNPISN) [reference compound]
- Binding to TDR in words (relative to wild type peptide) [1]: does not influence the binding significantly

Molecule: TDIF-H1A/E2A/V3A/N12A: TDIF mutant peptide (AAAPSGPNPISA; not fully specified (residues 4, 7))
- Kd (dissociation constant) [1]: No binding
- Binding to TDR in words (relative to wild type peptide) [1]: no binding

Molecule: CC[C@H](C)[C@H](NC(=O)[C@@H]1CCCN1C(=O)[C@H](CC(N)=O)NC(=O)[C@@H]1C[C@@H](O)CN1C(=O)CNC(=O)[C@H](CO)NC(=O)[C@@H]1C[C@@H](O)CN1C(=O)[C@@H](NC(=O)[C@H](CCC(=O)O)NC(=O)[C@@H](N)Cc1c[nH]cn1)C(C)C)C(=O)N[C@@H](CO)C(=O)N[C@@H](CC(N)=O)C(=O)O [TDIF, Tracheary Element Differentiation Inhibitory Factor] (H-HEV[Hyp]SG[Hyp]NPISN-OH)
- Kd [3]: no measurable binding
- Kd [4]: no measurable binding

Molecule: TDIF-H1A/E2A/V3A/N8A/I10A/N12A: TDIF mutant peptide, both anchoring sites mutated (AAAPSGPAPASA; not fully specified (residues 4, 7))
- Kd (dissociation constant) [1]: No binding
- Binding to TDR in words (relative to wild type peptide) [1]: no binding

Molecule: CC(C)[C@H](NC(=O)[C@H](CCC(=O)O)NC(=O)[C@@H](N)Cc1c[nH]cn1)C(=O)N1C[C@H](O)C[C@H]1C(=O)N[C@@H](CO)C(=O)NCC(=O)N1C[C@H](O)C[C@H]1C(=O)N[C@@H](C)C(=O)N1CCC[C@H]1C(=O)N[C@@H](C)C(=O)N[C@@H](CO)C(=O)N[C@@H](C)C(=O)O [TDIF-N8A/I10A/N12A] (H-HEV[Hyp]SG[Hyp]APASA-OH)
- Kd [1]: 11.1 ± 1.84 µM

B1: CLE9 peptide R1H (peptide)
chain: HLVPSGPNPLHN
- ratio to parent ([5]; chain shown with the change): -46.6
- other: fold change in Kd against wild type TDIF ([5]; chain shown with the change, parent: […]): 2.1
- Kd ([5]; chain shown with the change;, parent: 10215 ± 6281 nM): 0.219 µM

B2: CLE42 peptide (peptide)
peptide: HGVPSGPNPISN
notes: CLE42 peptide of A. thaliana; numbers count on: the 12-residue peptide
- binding result [6]: binds

B3: TDIF peptide with alanine substitution of S5 (peptide)
peptide: HEV[Hyp]AG[Hyp]NPISN
notes: TDIF (CLE41/CLE44 peptide) of A. thaliana; numbers count on: the 12-residue peptide; also called S5 alanine mutant
- binding result [6]: binds

B4: TDIF-H1R peptide (peptide)
peptide: REV[Hyp]SG[Hyp]NPISN
notes: TDIF (CLE41/CLE44 peptide) of A. thaliana; numbers count on: the 12-residue peptide; also called printed once as 'R1H substitution of TDIF'; source: synthetic peptide
- fold lower affinity than wild-type TDIF [6]: 3.2 fold

B5: G6A TDIF mutant peptide (peptide)
peptide: HEV[Hyp]SA[Hyp]NPISN
notes: TDIF (CLE41/CLE44 peptide) of A. thaliana; numbers count on: the 12-residue peptide
- fold lower affinity than wild-type TDIF [6]: 13.9 fold

B6: TDIF E2A mutant peptide (peptide)
peptide: HAV[Hyp]SG[Hyp]NPISN
notes: as for B5
- fold increase in Kd over wild-type TDIF [6]: 3.2 fold

B7: TDIF S11A mutant peptide (peptide)
peptide: HEV[Hyp]SG[Hyp]NPIAN
notes: as for B5
- binding result [6]: binds

B8: TDIF V3A mutant peptide (peptide)
peptide: HEA[Hyp]SG[Hyp]NPISN
notes: as for B5
- fold lower affinity than wild-type TDIF [6]: 11.1 fold

B9: TDIF peptide with alanine substitution of Hyp7 (peptide)
peptide: HEV[Hyp]SGANPISN
notes: TDIF (CLE41/CLE44 peptide) of A. thaliana; numbers count on: the 12-residue peptide; also called Hyp7 alanine mutant
- binding result [6]: binds

B10: TDIF-P9A mutant peptide (peptide)
peptide: HEV[Hyp]SG[Hyp]NAISN
notes: as for B5
- fold decrease in binding against wild-type TDIF [6]: 2 fold

B11: TDIF peptide with alanine substitution of Hyp4 (peptide)
peptide: HEVASG[Hyp]NPISN
notes: TDIF (CLE41/CLE44 peptide) of A. thaliana; numbers count on: the 12-residue peptide; also called Hyp4 alanine mutant
- binding result [6]: binds

B12: TDIF E2R mutant peptide (peptide)
peptide: HRV[Hyp]SG[Hyp]NPISN
notes: as for B5
- fold increase in Kd over wild-type TDIF [6]: 5.3 fold

B13: TDIF H1A mutant peptide (peptide)
peptide: AEV[Hyp]SG[Hyp]NPISN
notes: as for B5
- fold lower affinity than wild-type TDIF [6]: ~115 fold

B14: G6T TDIF mutant peptide (peptide)
peptide: HEV[Hyp]ST[Hyp]NPISN
notes: as for B5
- fold lower affinity than wild-type TDIF [6]: 20.1 fold

B15: CLE9 peptide (peptide)
chain: RLVPSGPNPLHN
- Kd [7]: 10.2 µM

B16: TDIF-N8A/I10A/N12A peptide (peptide)
peptide: HEV[Hyp]SG[Hyp]APASA
notes: as for B5
- Kd [6]: ~11 µM
- fold lower affinity than wild-type TDIF [6]: ~110 fold

From publication PMC5383425, “Differential CLE peptide perception by plant receptors implicated from structural and functional analyses of TDIF-TDR interactions” (PLoS ONE, 2017)
